Source: article PMC10288270, “Study on the Role of an Erythrocyte Membrane‐Coated Nanotheranostic System in Targeted Immune Regulation of Alzheimer's Disease”

Target: Amyloid beta 1-42 (UniProt P05067 672-713)
Test: fluorescence recovery (FAM/BHQ1 dequenching); Abeta 0-160 ug/mL, 2 h; TBS: 1 mM Tris-HCl, 100 mM NaCl, 4 mM MgCl2, 5 mM KCl, pH 7.4; 37 C, 2 h; aptamer refolded from 95 C; 2 uL of 10 uM aptamer
Conditions: protein: commercial; label: 5' 6-FAM, 3' BHQ1 as printed in Methods (Results text states FAM 3', BHQ 5'); hairpin (stated design)

Chain of Amyloid beta 1-42 (P05067 672-713): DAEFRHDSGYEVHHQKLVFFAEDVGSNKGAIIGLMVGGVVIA

B1: Abeta aptamer (AAP) (structured_DNA)
DNA: TGGGGGGCGGACGATAGGGGCCCCCCGGTAGGATGGACG
binding result: binds
